From patent publication US20090208447A1 (MEDIGENE, published 2009)
Positions count from the first letter of the chain named.

B1: SEQ ID NO 73 (receptor)
chain: MHLPKPTLWAEPGSVITMDQPVTLRCQGGQETQEYRLYREKKTAPWITRIPQELVKKGQFPIPSITWEHAGRYRCVIQRGTAGRSESSDPLELVVTGVYIKPTLSAQPSPVVNSGGNVTLQCDSQVAFDGFILCKEGEDEHPQCLNSQPHARGSSRAIFSVGPVSPSRRWWYRCYAYDSNSPYEWSLPSDLLELDVDG
B2: SEQ ID NO 78 (receptor)
chain: B1 chain with V76Y, I77Y, Q78G, R79S, G80D, A82S, G83Q, R84W, E86A, I158E
B3: SEQ ID NO 75 (receptor)
chain: B1 chain with V76Y, I77Y, Q78G, R79T, G80Q, A82S, G83Q, R84W, E86A
B4: SEQ ID NO 74 (receptor)
chain: B1 chain with V76Y, I77Y, Q78G, R79G, G80Q, T81E, A82G, G83A
B5: SEQ ID NO 79 (receptor)
chain: B1 chain with V76Y, I77Y, Q78G, R79S, G80D, A82S, G83Q, R84W, E86A, L187D
B6: SEQ ID NO 77 (receptor)
chain: B1 chain with V76Y, I77Y, Q78G, R79S, G80D, A82S, G83Q, R84W, E86A, L145D
B7: SEQ ID NO 80 (receptor)
chain: MHLPKPTLWAEPGSVITMDQPVTLRCQGGQETQEYRLYREKKTAPWITRIPQELVKKGQFPIPSITWEHAGRYRCYYGSDTSQWSASSDPLELVVTGVYIKPTLSAQPSPVVNSGGNVTLQCDSQVAFDGFILSKEGEDEHPQSLNSQPHARGSSRAIFSVGPVSPSRRWWYRCYAYDSNSPYEWSLPSDLLELDVDG
B8: SEQ ID NO 76 (receptor)
chain: MGHLPKPTLWAEPGSVITMDQPVTLRCQGGQETQQYRLYREKKTAPWITRIPQELVKKGQFPIPSITWEHAGRYRCYYGSDTRQWSASSDPLELVVTGVYIKPTLSAQPSPVVNSGGNVTLQCDSQVAFDGFILCKEGEDDHPQCLNSQPHARGSSRAIFSVGPVSPSRRWRYRCYAYDSNSPYEWSLPSDLLELDVDG
B9: soluble truncated variant of the Wild-Type ILT-2 molecule (extracellular domains D1 and D2) (receptor)
chain: MGHLPKPTLWAEPGSVITQGSPVTLRCQGGQETQEYRLYREKKTAPWITRIPQELVKKGQFPIPSITWEHAGRYRCYYGSDTAGRSESSDPLELVVTGAYIKPTLSAQPSPVVNSGGNVTLQCDSQVAFDGFILCKEGEDEHPQCLNSQPHARGSSRAIFSVGPVSPSRRWWYRCYAYDSNSPYEWSLPSDLLELLVL
notes: also called soluble wild-type ILT-2 polypeptide; soluble two domain form of the wild-type ILT-2

target: T1, HLA-A*0201 loaded with the Carcinoembryonic antigen (CEA)-derived … peptide (biotinylated on the C-terminal biotinylation tag); experiment: SPR (Biacore), Example 4

Kd	koff	Binder
≤ 1000 nM	≤ 2 s⁻¹	B1
≤ 1000 nM	≤ 2 s⁻¹	B2
≤ 1000 nM	≤ 2 s⁻¹	B3
≤ 1000 nM	≤ 2 s⁻¹	B4
≤ 1000 nM	≤ 2 s⁻¹	B5
≤ 1000 nM	≤ 2 s⁻¹	B6
≤ 1000 nM	≤ 2 s⁻¹	B7
≤ 1000 nM	≤ 2 s⁻¹	B8

target: T1, HLA-A*0201 loaded with the …; experiment: SPR (Biacore), method of Example 4

koff	Binder
2.4 s⁻¹	B9

target: T1, HLA-A*0201 loaded with the …; experiment: SPR (Biacore 3000), biotinylated pMHC immobilised on streptavidin

Kd	Binder
~6000 nM	B9
